The series deals with the molecule itself. As to the kind of experiment: MST.

B1: MRE11 structured-domain (1-411 aa) (domain or fragment, UniProt P49959 1-411, looked up)
chain: MSTADALDDENTFKILVATDIHLGFMEKDAVRGNDTFVTLDEILRLAQENEVDFILLGGDLFHENKPSRKTLHTCLELLRKYCMGDRPVQFEILSDQSVNFGFSKFPWVNYQDGNLNISIPVFSIHGNHDDPTGADALCALDILSCAGFVNHFGRSMSVEKIDISPVLLQKGSTKIALYGLGSIPDERLYRMFVNKKVTMLRPKEDENSWFNLFVIHQNRSKHGSTNFIPEQFLDDFIDLVIWGHEHECKIAPTKNEQQLFYISQPGSSVVTSLSPGEAVKKHVGLLRIKGRKMNMHKIPLHTVRQFFMEDIVLANHPDIFNPDNPKVTQAIQSFCLEKIEEMLENAERERLGNSHQPEKPLVRLRVDYSGGFEPFSVLRFSQKFVDRVANPKDIIHFFRHREQKEKTGEE
modifications: amine-reactive AlexaFluor-647 dye on the labelled copy; the titrated copy is unlabelled
Turning to B1, the Kd (commonly the constant that tells how readily two partners part at equilibrium) stood at 370 ± 80 nM.
